From patent publication US20160195533

Target: Snail1, endogenous protein of A549, HCC44, HEK293T or H1299 cells
Sequence (chain, as listed by the source): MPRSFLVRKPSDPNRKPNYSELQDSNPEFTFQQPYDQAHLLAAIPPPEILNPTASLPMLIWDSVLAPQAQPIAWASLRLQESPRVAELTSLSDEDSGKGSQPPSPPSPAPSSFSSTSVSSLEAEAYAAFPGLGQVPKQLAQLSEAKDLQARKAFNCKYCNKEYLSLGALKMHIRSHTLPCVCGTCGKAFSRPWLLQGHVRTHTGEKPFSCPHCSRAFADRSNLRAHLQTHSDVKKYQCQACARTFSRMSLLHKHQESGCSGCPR

B1: glutamyl-prolyl-tRNA synthetase (EPRS), endogenous protein of A549 or HEK293T cells (protein)
chain: MATLSLTVNSGDPPLGALLAVEHVKDDVSISVEEGKENILHVSENVIFTDVNSILRYLARVATTAGLYGSNLMEHTEIDHWLEFSATKLSSCDSFTSTINELNHCLSLRTYLVGNSLSLADLCVWATLKGNAAWQEQLKQKKAPVHVKRWFGFLEAQQAFQSVGTKWDVSTTKARVAPEKKQDVGKFVELPGAEMGKVTVRFPPEASGYLHIGHAKAALLNQHYQVNFKGKLIMRFDDTNPEKEKEDFEKVILEDVAMLHIKPDQFTYTSDHFETIMKYAEKLIQEGKAYVDDTPAEQMKAEREQRIDSKHRKNPIEKNLQMWEEMKKGSQFGQSCCLRAKIDMSSNNGCMRDPTLYRCKIQPHPRTGNKYNVYPTYDFACPIVDSIEGVTHALRTTEYHDRDEQFYWIIEALGIRKPYIWEYSRLNLNNTVLSKRKLTWFVNEGLVDGWDDPRFPTVRGVLRRGMTVEGLKQFIAAQGSSRSVVNMEWDKIWAFNKKVIDPVAPRYVALLKKEVIPVNVPEAQEEMKEVAKHPKNPEVGLKPVWYSPKVFIEGADAETFSEGEMVTFINWGNLNITKIHKNADGKIISLDAKLNLENKDYKKTTKVTWLAETTHALPIPVICVTYEHLITKPVLGKDEDFKQYVNKNSKHEELMLGDPCLKDLKKGDIIQLQRRGFFICDQPYEPVSPYSCKEAPCVLIYIPDGHTKEMPTSGSKEKTKVEATKNETSAPFKERPTPSLNNNCTTSEDSLVLYNRVAVQGDVVRELKAKKAPKEDVDAAVKQLLSLKAEYKEKTGQEYKPGNPPAEIGQNISSNSSASILESKSLYDEVAAQGEVVRKLKAEKSPKAKINEAVECLLSLKAQYKEKTGKEYIPGQPPLSQSSDSSPTRNSEPAGLETPEAKVLFDKVASQGEVVRKLKTEKAPKDQVDIAVQELLQLKAQYKSLIGVEYKPVSATGAEDKDKKKKEKENKSEKQNKPQKQNDGQRKDPSKNQGGGLSSSGAGEGQGPKKQTRLGLEAKKEENLADWYSQVITKSEMIEYHDISGCYILRPWAYAIWEAIKDFFDAEIKKLGVENCYFPMFVSQSALEKEKTHVADFAPEVAWVTRSGKTELAEPIAIRPTSETVMYPAYAKWVQSHRDLPIKLNQWCNVVRWEFKHPQPFLRTREFLWQEGHSAFATMEEAAEEVLQILDLYAQVYEELLAIPVVKGRKTEKEKFAGGDYTTTIEAFISASGRAIQGGTSHHLGQNFSKMFEIVFEDPKIPGEKQFAYQNSWGLTTRTIGVMTMVHGDNMGLVLPPRVACVQVVIIPCGITNALSEEDKEALIAKCNDYRRRLLSVNIRVRADLRDNYSPGWKFNHWELKGVPIRLEVGPRDMKSCQFVAVRRDTGEKLTVAENEAETKLQAILEDIQVTLFTRASEDLKTHMVVANTMEDFQKILDSGKIVQIPFCGEIDCEDWIKKTTARDQDLEPGAPSMGAKSLCIPFKPLCELQPGAKCVCGKNPAKYYTLFGRSY
In the case of B1, the “EMT markers after EPRS knock-down (immunoblot, A549)” value is reported as “at the time of EPRS knock-down, the Snail1 and p-SMAD3 was reduced and the E-cadherin was increased. This indicates that the EMT progress was suppressed”.
